Measurements: patent publication KR20240007815A (dated 2024)
Residue numbers refer to the chain shown, from its start.

Key:
[1] = molecular target: 인간 BDCA-2 (Blood dendritic cell antigen 2, CLEC4C) (human) (UniProt Q8WTT0); assay: flow cytometry, double staining of human PBMC with anti-CD123 and anti-BDCA-2
[2] = molecular target: 인간 BDCA-2 (Blood dendritic cell antigen 2, CLEC4C) (human) (UniProt Q8WTT0); assay: flow cytometry, double staining of human PBMC with anti-CD123 and 201A
[3] = molecular target: T1, 인간 BDCA-2 (Blood dendritic cell antigen 2, CLEC4C) (human, UniProt Q8WTT0 1-213); assay: flow cytometry on 293 cells expressing human BDCA-2, anti-human IgG-APC secondary
T1 construct: whole, on cells; also called human BDCA-2
T1 sequence (looked up): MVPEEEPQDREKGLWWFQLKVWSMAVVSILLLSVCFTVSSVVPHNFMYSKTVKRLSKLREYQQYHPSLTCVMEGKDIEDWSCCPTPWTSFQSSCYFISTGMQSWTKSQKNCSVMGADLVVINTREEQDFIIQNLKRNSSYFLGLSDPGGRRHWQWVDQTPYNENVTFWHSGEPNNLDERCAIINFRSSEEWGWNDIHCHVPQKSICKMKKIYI

## anti-BDCA-2 (AC144, Miltenyi) (antibody)
[1]
  % CD123+ BDCA-2+ 세포 (donor-1 PBMC): 0.51%
  % CD123+ BDCA-2+ 세포 (donor-2 PBMC): 0.15%

B1: 인간 BDCA-2에 결합하는 마우스 단일클론 항체 201A (antibody, mouse IgG2a, kappa, V domains shown)
VH: DVKLVESGGGLVKPGGSLNLSCAASGFTFSSYTMSWVRQNPEKRLEWVATISSGGSYTYYPDSVKGRFTISRDNAKNTLYLQMSSLKSEDTAMYYCTRDRGDYDYDEGYYFDYWGQGTTLTVSS
VL: NIVLTQSPASLAVSLGQRATISCRASASVDSYGNSFMHWYQQKPGQPPKLLIYLASNLESGVPARFSGSGSRTDFTLTIDPVEADDAATYYCQQNNEDPRTFGGGTKLEIKR
[2]
  % CD123+ BDCA-2+ 세포 (donor-1 PBMC): 0.65%
  % CD123+ BDCA-2+ 세포 (donor-2 PBMC): 0.16%

B2: 201A 인간화 항체 201H (antibody, human IgG1, kappa, V domains shown)
VH: EVQLVESGGGLVKPGGSLRLSCAASGFTFSSYTMSWVRQAPGKGLEWVATISSGGSYTYYPDSVKGRFTISRDNAKNSLYLQMNSLRAEDTAVYYCTRDRGDYDYDEGYYFDYWGQGTLVTVSS
VL: B1 VL with N1D, L15P, S22T, D80N, D85N, A87T, T89N, L108V
notes: Humanised antibody made in Expi293 cells, purified on protein G; detected with anti-human IgG Fc
[3]
  binding result: binds

B3: 201A 키메라 항체 201C (antibody, human IgG1, kappa, V domains shown)
VH: B1 VH
VL: B1 VL
notes: Chimeric antibody made in Expi293 cells, purified on protein G; detected with anti-human IgG Fc
[3]
  binding result: binds
